Data on one molecule can be found in patent US20220023386A1, “METHOD FOR THE TREATMENT OR PREVENTION OF OSTEOARTHRITIS” (Chondropeptix B.V., priority 2016, published 2022).

For data set [1], the system named is Osteoarthritic chondrocytes. Put plainly: BMP-7 rescue of OA-associated chondrocyte phenotype (FIG. 1). It counts as cell-based. On the procedure:
Osteoarthritic chondrocytes display a typical phenotype that is characterized by decreased expression of SOX9, COL2A1, ACAN and BAPX1/NKX3.2 and an increased expression of RUNX2, COL10A1, ALP, MMP13, ADAMTSS, COX-2 and IL-6 mRNAs (see left panel).
Functional ALP enzyme activity in cell lysates and PGE2 secretion in the culture medium was also normalized upon BMP-7 treatment of OA chondrocytes (right panel).
Expression of indicated mRNAs was determined by RT-qPCR, relatively to control conditions (normalized for 28S rRNA expression). In graphs, error bars represent mean±SEM, statistical differences were calculated as compared to healthy condition. *=p<0.05.

The test system of data set [2] is Isolated chondrocytes from OA patients. Briefly: Treatment of isolated chondrocytes from OA patients, gene expression via qRT-PCR. In kind it is cell-based, human. Particulars: 1 nM, 24 h, n=6. On the procedure:
Isolated chondrocytes from OA patients (n=6) were treated with BMP-7 (1 nM) or the 12-mer peptide according to SEQ ID NO: 16 (1 nM) for 24 h. Pro-chondrogenic (FIG. 9A) and hypertrophic (FIGS. 9B, 9C and 9D) gene expression was determined via qRT-PCR and normalized for 28S rRNA levels.
For orientation: In qPCR the cycle at which signal appears reflects the starting amount.

Data set [3] relates to cartilage explants from OA patient's knee articular cartilage. Briefly: Treatment of cartilage explants, hypertrophic gene expression via qRT-PCR. Particulars: BMP-7 1 nM, SEQ ID NO: 16 10 nM, 24 h. It counts as cell-based, human. On the procedure: 4 mm2 cartilage explants were taken from non-lesion areas of OA patient's knee articular cartilage (n=5) and randomly assigned to different experimental treatment conditions (4 explants per treatment group). After a 24 h equilibration period the explants were treated with BMP-7 (1 nM) or the 12-mer peptide according to SEQ ID NO: 16 (10 nM) for 24 h. Hypertrophic gene expression was determined via qRT-PCR and normalized for 28S rRNA levels. After treatment with BMP-7 or the 12 mer we observed a downregulation of pro-hypertrophic genes, such as Col10a1 (FIG. 10A) and MMP13 (FIG. 10B).

A further data set relates to Cartilage explants. Put plainly: Safranin-O staining of glycosaminoglycans in cartilage explants. In kind it is cell-based, human. Particulars: 14 days; BMP-7 1 nM, SEQ ID NO: 8 10 nM; 2 patients. On the procedure:
Cartilage explants obtained from 2 patients were cultured for 14 days in the presence of BMP-7 (1 nM) or BMP-7 mimicking peptide […] (SEQ ID NO: 8) at 10 nM. Glycosaminoglycans (GAGs), an important component of the extracellular matrix (ECM), were stained with Safranin-O (in red) and other tissues are counterstained with Fast green (in green/blue).

Data set [4] relates to Cartilage explants from OA patient's knee cartilage. Briefly: PGE2 levels via ELISA in cartilage explants. In kind it is cell-based, human. Particulars: 14 days; BMP-7 1 nM, peptides 10 nM. On the procedure:
Cartilage explants of 3 mm^2 were taken from OA patient's knee cartilage (n=6) and treated with BMP-7 (1 nM), with peptide […] (SEQ ID NO: 8) at 10 nM or a scrambled irrelevant control peptide (10 nM) for 14 days. Prostaglandin E2 (PGE2) levels, a pro-hypertrophic factor, were determined via an ELISA.
(In an ELISA, binding on a coated surface is turned into a signal by an enzyme label.)

Data set [5] has as its system Synovial tissue, Hoffa's fat pad tissue and meniscus tissue samples from OA patients. Put plainly: PGE2 levels via ELISA in synovial, Hoffa's fat pad and meniscus tissue samples. It counts as cell-based, human. Particulars: 24 h; BMP-7 1 nM, peptides 10 nM. On the procedure: Synovial tissue samples from OA patients (n=6) were treated with BMP-7 (1 nM), with peptide […] (SEQ ID NO: 8) at 10 nM or a scrambled irrelevant control peptide (10 nM) for 24 h. PGE2 levels were determined via an ELISA.
Hoffa's fat pad tissue samples from OA patients (n=6) were treated with BMP-7 (1 nM) with peptide […] (SEQ ID NO: 8) at 10 nM or a scrambled irrelevant control peptide (10 nM) for 24 h. PGE2 levels were determined via an ELISA.
Meniscus tissue samples from OA patients (n=6) were treated with BMP-7 (1 nM) with peptide […] (SEQ ID NO: 8) at 10 nM or a scrambled irrelevant control peptide (10 nM) for 24 h. PGE2 levels were determined via an ELISA.

Another data set has as its system OA. Particulars: intra-articular administration, rats; cited from earlier work.
For another data set, the system named is OA patients. Particulars: intra-articular injection, phase-1; cited from earlier work.
Setting [6] is: BMP-7 treatment of OA chondrocytes.

B1: bone morphogenetic protein-7 (protein)
chain: STGSKQRSQNRSKTPKNQEALRMANVAENSSSDQRQACKKHELYVSFRDLGWQDWIIAPEGYAAYYCEGECAFPLNSYMNATNHAIVQTLVHFINPETVPKPCCAPTQLNAISVLYFDDSSNVILKKYRNMVVRACGCH
modifications: homo sapiens
notes: full-length recombinant human BMP-7, mature polypeptide of 139 amino acids
With B1, the “concentration at which OA chondrocyte-phenotype suppressive action is most pronounced” value in data set [1] was “around 1 nM”. Also, the “OA-associated chondrocyte phenotype (expression of SOX9, COL2A1, ACAN, BAPX1/NKX3.2, RUNX2, COL10A1, ALP, MMP13, ADAMTS5, COX-2, IL-6 mRNAs)” value in data set [1] (BMP-7 1 nM) is reported as “able to rescue”. In data set [1] (BMP-7 concentrations higher than 1 nM (eg 10 nM or 100 nM)), the “effects on the chondrocyte phenotype at high concentration” value was “opposite and negative effects”. Moreover, in data set [1] (setting [6]), the “Functional ALP enzyme activity in cell lysates” value is on record as “normalized” and the “PGE2 secretion in the culture medium” value is reported as “normalized”. In data set [2], the “COL10A1 gene expression (pro-hypertrophic)” value is “downregulation”, the “COX-2 gene expression (pro-hypertrophic)” value is “downregulation”, the “Col2a1 gene expression (pro-chondrogenic)” value is given as “upregulation” and the “RUNX2 gene expression (pro-hypertrophic)” value is on record as “downregulation”. Moreover, in data set [3], the Col10a1 gene expression result is recorded as “downregulation” and the MMP13 gene expression result was “downregulation”. The “Safranin-O intensity (GAGs) compared to control” value in the data set on Cartilage explants is listed as “increased Safranin-O intensity”. In addition, the “PGE2 levels in the cartilage” value in data set [4] is given as “reduce PGE2 levels”. Further, in data set [5], the “PGE2 levels in the surrounding tissues (synovial, Hoffa's fat pad, meniscus)” value is on record as “reduce PGE2 levels”. For the same molecule, the “OA development and progression” value in the data set with OA is “protects against OA development and delays progression of OA”. Besides, the adverse events entry with OA patients is “no serious adverse events”.
